IntAct's records for PubMed 17891154

Target: vps29_human VPS29 (UniProt Q9UBQ0)

Vacuolar protein sorting-associated protein 35 (Homo sapiens) (from UniProt Q96QK1) F534D;F541D
effect of a mutation on the interaction: disrupting interaction strength

Vacuolar protein sorting-associated protein 35 (Homo sapiens) (from UniProt Q96QK1) H769A;N772A;H776A
effect of a mutation on the interaction: disrupting interaction strength

Vacuolar protein sorting-associated protein 35 (Homo sapiens) (from UniProt Q96QK1) L579D;R582D;Q586A;L589D
effect of a mutation on the interaction: disrupting interaction strength

Vacuolar protein sorting-associated protein 35 (Homo sapiens) (from UniProt Q96QK1) N725A;Y729A
effect of a mutation on the interaction: disrupting interaction strength

Vacuolar protein sorting-associated protein 35 (Homo sapiens) (from UniProt Q96QK1) T629D;L630A;G633D;R637D
effect of a mutation on the interaction: disrupting interaction strength

Vacuolar protein sorting-associated protein 35 (Homo sapiens) (from UniProt Q96QK1) T672D;H675D
effect of a mutation on the interaction: disrupting interaction strength
